Laboratory results as given in patent publication US20140248254A1, “THE USE OF ACHE AS NUCLEASE” (priority 2011, published 2014).

Key:
[1] = system: plasmid DNA (pEGFP-C1 plasmid); assay: In vitro DNase activity: cleavage of plasmid DNA by purified protein; assay type: biochemical; details: for cleavage of plasmid DNA from supercoil (SC) into Nick and Linear structures: cell free system, 37° C.
Procedure: D. The results of 1% agarose electrophoresis before which pEGFP-C1 plasmid DNA and Homo or Mus AChE protein (0, 0.5, 1 and 2 μg) were coincubated for 6 h. EcoR was used to indicate linear DNA. MK indicated molecular weight marker.
E. the plasmid splitting with increasing time of the incubation of pEGFP-C1 plasmid DNA (150 ng) and Homo or Mus AChE protein (1 μg)). The above experiment was repeated for 3 times.
G. Commercial AChE isolated from Ee1 was incubated in different doses with plasmid DNA, and two bovine serum albumins (BSA1, BSA2) purchased from different companies were used as control at the same time; after being incubated for 5 h, they were subjected to DNA gel electrophoresis.
H. Commercial AChE isolated from Ee1 was incubated with plasmid DNA for different durations, and two bovine serum albumins (BSA1, BSA2) purchased from different companies were used as control at the same time. They were then subjected to DNA gel electrophoresis.
B. The influence of pH value on AChE nuclease activity. Plasmid DNA was incubated with Homo AChE protein under different pH conditions for 3 h.
Purified plasmid DNA was used as substrate for detection. In the experiment of cleaving of plasmid DNA, 0.15 μg of plasmid DNA with a transfection-grade purity (pEGFP-C1 plasmid, Clotech) was added to 10 μl buffer system containing (5.0 mM Tris-HCl, PH 7.5; 2.5 mM CaCl2; 5.0 mM MgCl2). 1 μg (or an amount indicated in Examples) of purified AChE proteins of human or mouse origin (AChE 1-547AA corresponding to human; AChE1-548AA corresponding to mouse) was further added, and incubated in 37° C. Sampling at 6 h (or timepoints indicated in Examples).

[2] = system: DNA; assay: Dissociation constant between protein and DNA (Bio Core T100 assay); assay type: binding
From the text: AChE protein and DNase I presented similar binding curves.
Meanwhile, the inventors detected environment characteristics in which AChE cleaving DNA. DNase activity of AChE was Mg2+-dependent, while Ca2+ could only play a weak supporting role (FIG. 5a). In a relatively wide pH range of pH 7.0-10.0 (similar to in vivo pH environment during apoptosis), AChE can fully play its function of cleaving DNA (FIG. 5b).

[3] = system: HeLa cell; assay: Screening Method 3: DNA breakage (Tunnel) in fixed, permeabilized HeLa cells treated with protein; assay type: cell-based, human; details: AChE protein 1 μg/μl, 1-2 hr 37° C., compared with BSA group
Procedure: HeLa cells were plated in 96-well plate with a 60% density, and after complete adherence, the cells were fixed with 4% PFA for 10 min, and permeabilized with 0.1% sodium citrate +0.1% Triton X-100 for 10 min, for twice. After PBS washing, cells were divided into five groups, as follows:
AChE protein group: HeLa cell, treated with AChE protein (1 μg/μl) after fixation and permeabilization treatment;
Cells of each group were incubated for 1-2 hr in 37° C.; Washed twice with PBS, and fixed with 4% PFA for 10 min. Tunnel reagent was added, incubated for 1 hr in 37° C.; and then washed three times with PBS, stained with Hoechest. Observation was performed by fluorescence microscope.

| Molecule | DNA cleaving activity at pH 5-6 ([1]; Homo AChE protein, pH 5-6, 3 h) | DNA cleaving activity at pH 7-10 ([1]; Homo AChE protein, pH 7-10, 3 h) | affinity for DNA relative to that of DNase I ([2]; from Kd values) | Kd ([2]; software analysis of binding curves) | intracellular DNA breakage [3] | cleavage of plasmid DNA from supercoil (SC) into Nick and Linear structures [1] |
| --- | --- | --- | --- | --- | --- | --- |
| AChE (protein, listed as Homo Sapiens) MRPPQCLLHTPSLASPLLLLLLWLLGGGVGAEGREDAELLVTVRGGRLRGIRLKTPGGPVSAFLGIPFAEPPMGPRRFLPPEPKQPWSGVVDATTFQSVCYQYVDTLYPGFEGTEMWNPNRELSEDCLYLNVWTPYPRPTSPTPVLVWIYGGGFYSGASSLDVYDGRFLVQAERTVLVSMNYRVGAFGFLALPGSREAPGNVGLLDQRLALQWVQENVAAFGGDPTSVTLFGESAGAASVGMHLLSPPSRGLFHRAVLQSGAPNGPWATVGMGEARRRATQLAHLVGCPPGGTGGNDTELVACLRTRPAQVLVNHEWHVLPQESVFRFSFVPVVDGDFLSDTPEALINAGDFHGLQVLVGVVKDEGSYFLVYGAPGFSKDNESLISRAEFLAGVRVGVPQVSDLAAEAVVLHYTDWLHPEDPARLREALSDVVGDHNVVCPVAQLAGRLAAQGARVYAYVFEHRASTLSWPLWMGVPHGYEIEFIFGIPLDPSRNYTAEEKIFAQRLMRYWANFARTGDPNEPRDPKAPQWPPYTAGAQQYVSLDLRPLEVRRGLRAQACAFWNRFLPKLLSATDTLDEAERQWKAEFHRWSSYMVHWKNQFDHYSKQDRCSDL | reduced slightly | can effectively function to cleave DNA | about 74% | 1.53 µM | obvious breakage |  |
| Homo AChE (protein) EGREDAELLVTVRGGRLRGIRLKTPGGPVSAFLGIPFAEPPMGPRRFLPPEPKQPWSGVVDATTFQSVCYQYVDTLYPGFEGTEMWNPNRELSEDCLYLNVWTPYPRPTSPTPVLVWIYGGGFYSGASSLDVYDGRFLVQAERTVLVSMNYRVGAFGFLALPGSREAPGNVGLLDQRLALQWVQENVAAFGGDPTSVTLFGESAGAASVGMHLLSPPSRGLFHRAVLQSGAPNGPWATVGMGEARRRATQLAHLVGCPPGGTGGNDTELVACLRTRPAQVLVNHEWHVLPQESVFRFSFVPVVDGDFLSDTPEALINAGDFHGLQVLVGVVKDEGSYFLVYGAPGFSKDNESLISRAEFLAGVRVGVPQVSDLAAEAVVLHYTDWLHPEDPARLREALSDVVGDHNVVCPVAQLAGRLAAQGARVYAYVFEHRASTLSWPLWMGVPHGYEIEFIFGIPLDPSRNYTAEEKIFAQRLMRYWANFARTGDPNEPRDPKAPQWPPYTAGAQQYVSLDLR |  |  |  |  |  | effectively cleave plasmid DNA |
| Mus AChE (protein) EGREDPQLLVRVRGGQLRGIRLKAPGGPVSAFLGIPFAEPPVGSRRFMPPEPKRPWSGVLDATTFQNVCYQYVDTLYPGFEGTEMWNPNRELSEDCLYLNVWTPYPRPASPTPVLIWIYGGGFYSGAASLDVYDGRFLAQVEGAVLVSMNYRVGTFGFLALPGSREAPGNVGLLDQRLALQWVQENIAAFGGDPMSVTLFGESAGAASVGMHILSLPSRSLFHRAVLQSGTPNGPWATVSAGEARRRATLLARLVGCPPGGAGGNDTELIACLRTRPAQDLVDHEWHVLPQESIFRFSFVPVVDGDFLSDTPEALINTGDFQDLQVLVGVVKDEGSYFLVYGVPGFSKDNESLISRAQFLAGVRIGVPQASDLAAEAVVLHYTDWLHPEDPTHLRDAMSAVVGDHNVVCPVAQLAGRLAAQGARVYAYIFEHRASTLTWPLWMGVPHGYEIEFIFGLPLDPSLNYTTEERIFAQRLMKYWTNFARTGDPNDPRDSKSPQWPPYTTAAQQYVSLNLKP |  |  |  |  |  | effectively cleave plasmid DNA |
